Measurements published in the supplement of paper PMC7877785.
± gives the uncertainty stated by the source.

Experiment: self-splicing fitness, log relative to wild type (ln ratio); higher = more splicing; Tetrahymena group I intron in knt gene, E. coli kanamycin selection, DiMSum; sequences stand for … in CUCUCU…GGAGGGAAAAGUUAUCAGGCAUGCACCUGGUAGCUAGUCUUUAAACCAAUAGAUUGCAUCGGUUUAAAAGGCAAGACCGUCAAAUUGCGGGAAAGGGGUCAACAGCCGUUCAGUACCAAGUCUCAGGGGAAACUUUGAGAUGGCCUUGCAAAGGGUAUGGUAAUAAGCUGACGGACAUGGUCCUAACCACGCAGCCAAGUCCUAAGUCAACAGAUCUUCUGUUGAUAUGGAUGCAGUUCACAGACUAAAUGUCGGUCGGGGAAGAUGUAUUCUUCUCAUAAGAUAUAGUCGGACCUCUCCUUAAUGGGAGCUAGCGGAUGAAGUGAUGCAACACUGGAGCCGCUGGGAACUAAUUUGUAUGCGAAAGUAUAUUGAUUAGUUUUGGAGUACUCGUGGUCG
Method in brief: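 The eight P1ex-region nucleotides of an intron in the knt kanamycin-resistance gene on pET-22b(+) were all randomised and the library put into E. coli BL21(DE3). Six replicate transformations were grown overnight at 37°C or 30°C on LB agar with or without 25 μg/mL kanamycin, together with 100 μg/mL carbenicillin, 50 μM IPTG and 0.2% rhamnose. Colonies were pooled and amplicon-sequenced on an Illumina HiSeq 2500. Fitness from DiMSum is the error-weighted combination of wild-type-normalised replicate fold changes, kanamycin over none.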

Sequence	self-splicing fitness (ln) (30 °C)	self-splicing fitness (ln) (37 °C)
UUUCAGCAAUAUUACGCCUU	-1.58 ± 0.2	-0.883 ± 0.2
UUUCAGCAAUAUUACGCGGA	-2.2 ± 0.14	-1.54 ± 0.15
UUUCAGCAAUAUUACGCUCU	-1.2 ± 0.093	-0.182 ± 0.11
UUUCAGCAAUAUUACGGCUG	-4.1 ± 0.46	-1.84 ± 0.27
UUUCAGCAAUAUUACGGGCC	-4.27 ± 0.46	-2.37 ± 0.37
UUUCAGCAAUAUUACGGGCG	-1.02 ± 0.098	0.331 ± 0.14
UUUCAGCAAUAUUACGGGUU	-3.19 ± 0.24	-2.13 ± 0.18
UUUCAGCAAUAUUACGGUAA	-0.255 ± 0.1	-0.168 ± 0.084
UUUCAGCAAUAUUACGUAAA	-0.728 ± 0.089	-0.608 ± 0.11
UUUCAGCAAUAUUACGUACC	-3.51 ± 0.25	-2.14 ± 0.17
UUUCAGCAAUAUUACGUAGA	-1.72 ± 0.076	-0.283 ± 0.092
UUUCAGCAAUAUUACGUAUC	-1.71 ± 0.14	-1.5 ± 0.14
UUUCAGCAAUAUUACGUAUU	-2.08 ± 0.13	-1.39 ± 0.13
UUUCAGCAAUAUUACGUCGC	-3.67 ± 0.2	-2.73 ± 0.24
UUUCAGCAAUAUUACGUCGG	-1.51 ± 0.1	-1.17 ± 0.14
UUUCAGCAAUAUUACGUCUA	-0.33 ± 0.077	0.101 ± 0.079
UUUCAGCAAUAUUACGUGAG	-0.129 ± 0.054	-0.623 ± 0.07
UUUCAGCAAUAUUACGUGCU	-3.47 ± 0.32	-2 ± 0.24
UUUGAGCAAUAUUACGAACG		-0.865 ± 0.26
UUUGAGCAAUAUUACGACAU	-3.673 ± 0.034	-2.43 ± 0.043
UUUGAGCAAUAUUACGAGUA		-1.86 ± 0.21
UUUGAGCAAUAUUACGCUUA	-3.38 ± 0.36	-2.07 ± 0.23
UUUGAGCAAUAUUACGGAAA	-2.01 ± 0.21	-1.95 ± 0.24
UUUGAGCAAUAUUACGGCGA	-1.09 ± 0.18	-0.162 ± 0.19

Sequence	self-splicing fitness (ln) (30 °C)	self-splicing fitness (ln) (37 °C)
UUUGAGCAAUAUUACGGCUC	-2.38 ± 0.42	-1.39 ± 0.46
UUUGAGCAAUAUUACGGGAA	-2.02 ± 0.39	-2.22 ± 0.32
UUUGAGCAAUAUUACGGGAU	-2.91 ± 0.2	-3.24 ± 0.32
UUUGAGCAAUAUUACGUACG	-1.49 ± 0.32	-0.599 ± 0.35
UUUGAGCAAUAUUACGUCAG	-3.43 ± 0.2	-1.46 ± 0.27
UUUGAGCAAUAUUACGUCGU	-3.91 ± 0.34	-3.09 ± 0.24
UUUGAGCAAUAUUACGUGAU	-2.95 ± 0.33	
UUUUAGCAAUAUUACGACGA	-0.357 ± 0.14	0.422 ± 0.19
UUUUAGCAAUAUUACGACGU	-2.06 ± 0.25	-1.24 ± 0.22
UUUUAGCAAUAUUACGAGCA	-1.72 ± 0.15	-0.97 ± 0.16
UUUUAGCAAUAUUACGAUUG	-1.52 ± 0.14	-0.255 ± 0.16
UUUUAGCAAUAUUACGAUUU	-1.67 ± 0.16	-0.611 ± 0.21
UUUUAGCAAUAUUACGCAUC	-3.19 ± 0.31	-2.15 ± 0.23
UUUUAGCAAUAUUACGGAAG	-1.3 ± 0.17	-0.731 ± 0.19
UUUUAGCAAUAUUACGGCCA	-1.57 ± 0.19	-0.0772 ± 0.19
UUUUAGCAAUAUUACGGCGC	-1.12 ± 0.29	-0.567 ± 0.34
UUUUAGCAAUAUUACGGGGU	-1.6 ± 0.22	-1.08 ± 0.35
UUUUAGCAAUAUUACGGUCG	-0.778 ± 0.2	-0.345 ± 0.18
UUUUAGCAAUAUUACGGUGG	-1.24 ± 0.084	-1.16 ± 0.13
UUUUAGCAAUAUUACGUACA	-2.16 ± 0.15	-0.143 ± 0.2
UUUUAGCAAUAUUACGUAGA	-2.06 ± 0.22	-0.71 ± 0.24
UUUUAGCAAUAUUACGUCCC		-1.78 ± 0.48
UUUUAGCAAUAUUACGUUGC	-2.8 ± 0.43	
